Measurements taken from patent publication US7241873B2, “Recombinant anti-osteopontin antibody and use thereof” (Juridical Foundation the Chemo-sero-therapeutic Research …, priority 2001, dated 2007).

Key:
[1] = tested on: mouse collagen arthritis model; assay: Mouse collagen arthritis model (arthritogenic antibody cocktail/LPS); format: in vivo; details: text summary of Tables 6 to 9
Experimental: For arthritis induction, an arthritogenic antibody cocktail (under the trade name of a cocktail for arthritis, Arthrogen-CIA® mAb, Arthritogenic mAb cocktail; manufactured by Iwai Chemical Pharmaceutical Co., Ltd.) recognizing four epitopes specific to collagen was used. To a mouse was intravenously administered the arthritogenic cocktail; 3 days later, LPS (100 μg) was intraperitoneally administered to thereby elicit arthritis. Arthritis was observed on day 3 after LPS dosing, which reached maximum on day 6.
Immediately before LPS dosing and 3 days later, the M5 antibody was intravenously administered at a dose of 40 μg, 150 μg or 400 μg. As the control group, a rabbit IgG-dosed group (at a dose of 400 μg) was arranged. Additionally, the anti-mouse TNF-α antibody was intravenously administered at a dose of 200 μg/mouse immediately before LPS administration and 3 days later. As the control group, a rat IgG-dosed group (at a dose of 200 μg) was arranged. Further, MTX was orally given (at a dose of 3.2 mg/kg) once daily on the very day of LPS dosing and thereafter. Then, MTX dissolved in 5 ml of 0.5% methyl cellulose solution was used. For the control group, 5 ml of 0.5% methyl cellulose solution was arranged.
Concerning four items, namely arthritis score, leg edema, body weight change and feed intake, assessment was done per each group of five animals.

[2] = tested on: adhesion of human fibroblast TIG-7 to CHO/OPN-a; assay: Inhibition of TIG-7 cell adhesion to OPN; format: cell-based; details: peptide 100 μg/ml, FIG. 1A
Experimental: (§1) It was examined by the following method as to whether or not the murine monoclonal antibodies inhibited cell adhesion to OPN. First, a 96-well plate was precoated with various concentrations of the CHO/OPN-a at 4° C. overnight, which was then treated with 0.5% BSA in PBS under conditions of 37° C. for 10 minutes, so as to block non-specific adhesion. A human fibroblast TIG-7 or SW480 cell transformed with the cDNA of an integrin subunit α9 (referred to as “α9-transformed SW480 cell” hereinafter) was suspended in D-MEM containing 0.25% BSA; 200 μl of the resulting cell suspension (at a cell concentration of 5×10^4 cells/well) was injected in a 96-well plate precoated with the CHO/OPN-a or nOPN, in the presence or absence of various concentrations of the monoclonal antibodies or synthetic peptides, for incubation at 37° C. for one hour.
(§2) The culture medium was discarded from the plate, and all the wells were rinsed twice with D-MEM containing 0.25% BSA. The adherent cells were fixed and stained with 0.5% crystal violet in 20% methanol for 30 minutes.
All the wells were rinsed three times with water, and the adherent cells were then solubilized into 20% acetic acid. The resulting supernatant recovered from each well was analyzed with an immunoreader, to measure the absorbance at 590 nm to determine the relative count of the cells adhering to the well. All the assays were done in a triplicate fashion, and at least three independent experiments were performed. The values shown represent mean at three independent experiments.

[3] = tested on: adhesion of α9-transformed SW480 cell to nOPN; assay: Adhesion of α9-transformed SW480 cell to nOPN; format: cell-based, human; details: 3 μg/ml nOPN, combination of 200 μM GRGDSP peptide and anti-α9β1 antibody Y9A2, FIG. 2A
Experimental: as §1, §2
All the wells were rinsed three times with water, and the adherent cells were then solubilized into 20% acetic acid. The resulting supernatant recovered from each well was analyzed with an immunoreader, to measure the absorbance at 590 nm to determine the relative count of the cells adhering to the well. […]

[4] = tested on: adhesion of murine NIH 3T3 cell to mOPN/de-GST; assay: Inhibition of NIH 3T3 cell adhesion to murine OPN; format: cell-based, mouse; details: peptide 100 μg/mL, FIG. 15
Excerpt: It was examined by the method described in the reference (S. Kon et al., (2002): J. Cell. Biochem., 84(2), 420–432) as to whether or not the M5 antibody might inhibit cell adhesion to OPN. As the OPN, the full-length murine OPN was used, from which the GST segment had preliminarily been removed with PreScission protease (Amersham Pharmacia Biotech, Tokyo, Japan) (referred to as “mOPN/de-GST” hereinafter) was used. As the cell, murine NIH 3T3 cell was used.

[5] = tested on: adhesion of α9-transformed SW480 cell to vitronectin; assay: Adhesion of α9-transformed SW480 cell to vitronectin; format: cell-based, human; details: 1 μg/ml vitronectin, 200 μM peptide, FIG. 2A
[6] = tested on: human peripheral monocyte migration toward thrombin-cleaved OPN; assay: Migration of TNF-α-activated human peripheral monocyte toward thrombin-cleaved OPN (chimera 2K1); format: cell-based; details: for Mean migrating cell counts per 1 mm^3 (monocyte): thrombin-cleaved OPN 10 μg/mL
Experimental: First, the blood drawn out from a normal subject with heparin was diluted 2-fold with an RPMI 1640 culture medium. The diluted blood was overlaid on the Ficoll-Paque (Pharmacia), which was then centrifuged at 400×g at ambient temperature for 30 minutes. A white layer observed in the interface between the blood plasma and Ficoll-Paque was recovered and used as a monocyte. The monocyte thus obtained was overnight cultured with human TNF-α (20 ng/mL). The resulting activated monocyte was used for a migration experiment.
The migration experiment was done, using a 48-well microchemotaxis chamber (Neuro Probe Inc.). Human OPN reacted with bovine thrombin (Sigma) at 37° C. for 2 hours, for cleavage. After various concentrations of the 2K1 chimera antibody were added to the resulting human […] and left to stand at 37° C. for 15 minutes, the resulting mixture was added to the lower chamber (the final human OPN concentration was 10 μg/mL). Placing a polycarbonate filter (pore size of 5 μm) thereon, 50 μl of a cell suspension (2×10^6 cells/mL) was added to the upper chamber.
After culturing in the presence of 5% CO2 at 37° C. for 2 hours, the polycarbonate filter was removed, while […] with Diff-Quick (Baxter). The cells on the surface of the […] filter were counted at a magnification×40. The results are shown as mean cell count (cells/mm^3)±SD in 6 wells.

[7] = biological target: partial peptide GRGDSVVYGLR of the human osteopontin (Homo sapiens, UniProt P10451); assay: KD assay on BIACORE-2000; format: binding; details: compared with murine 2K1 antibody
Experimental: The KD value of the chimera 2K1 antibody was assayed in the following manner. First, a partial peptide GRGDSVVYGLR (residues 7–17 of SEQ ID NO: 1) of the human osteopontin was biotinylated with a biotinylation kit (Dojindo Corporate). A sensor chip SA was set on BIACORE-2000, to bind 23 RU of a ligand (Bin-GRGDSVVYGLR)(residues 7–17 of SEQ ID NO: 1). […] The data of these sensor grams were analyzed by global fitting at 1:1 (Langmuir) binding by a BIACORE analysis software BIA Evaluation Version 3.0. FIG. 6a is a sensor gram at various concentrations of the murine 2K1 antibody. FIG. 6b is a sensor gram at various concentrations of the chimera 2K1 antibody.

[8] = biological target: BSA-crosslinked osteopontin peptide (BSA-CVDTYDGRGDSVVYGLRS) (Homo sapiens, UniProt P10451); assay: ELISA binding to osteopontin peptide
Excerpt: Based on the concentrations of the humanized 2K1 antibody and the chimera 2K1 antibody as determined in Example 13, the binding activities of the humanized 2K1 antibody and the chimera 2K1 antibody with osteopontin peptide (CVDTYDGRGDSVVYGLRS) (SEQ ID NO: 1) were compared with reference to the ELISA of Kon et al. (Journal of Cellular […]: 420–432 (2002)).
Dilution series of the humanized 2K1 antibody and the chimera 2K1 antibody reacted on a microtiter plate with BSA-crosslinked osteopontin peptide (BSA-CVDTYDGRGDSVVYGLRS)(SEQ ID NO: 1) immobilized thereon. Then, the antibodies bound to BSA-CVDTYDGRGDSVVYGLRS (SEQ ID NO: 1) reacted with protein A-HRP, and finally with TMB (Dojindo Corporate), to measure the absorbance at a wavelength of 450 nm.
Additionally, reaction on a plate with only BSA immobilized thereon as a negative control was also measured in the same manner.
As a negative control, additionally, the binding activity of the chimera 2K1 antibody to BSA (open circle) and the binding activity of the humanized 2K1 antibody to BSA (open square) are also shown.

`CN(Cc1cnc2nc(N)nc(N)c2n1)c1ccc(C(=O)N[C@@H](CCC(=O)O)C(=O)O)cc1` [MTX] was tested, and the “effect on arthritis score, onset of arthritis and leg edema (therapeutic effect)” value [1] was “almost no pharmaceutical efficacy”.

For GRGDSP [reference compound], the “inhibition of TIG-7 adhesion to OPN” value [2] was “apparently inhibited”, the “inhibition of adhesion of α9-transformed SW480 cell to nOPN” value [3] was “inhibited” and the “inhibition of NIH 3T3 adhesion to mOPN/de-GST” value [4] was “apparently inhibited”. The “inhibition of adhesion between vitronectin and α9-transformed SW480 cell” value [5] was “inhibited”.

B1: chimera 2K1 antibody: VH and VL of murine 2K1 antibody (SEQ ID NO: 19, 20) conjugated to human Igγ1 and human Igκ (antibody, V domains shown)
VH: QVQLQQSGAELVRPGASVKLSCKALGYTFTDYEMHWVKQTPVHGLEWIGAIHPGRGGTAYNQKFKGKATLTADKSSSTAYMELSSLTSEDSAVYYCTRITGYFDVWGAGTTVTVSS
VL: DVLMTQTPLSLPVSLGDQASISCRSSQSIVHSNGNTYLEWYLQKPGQSPKLLIYKVSNRFSGVPDRFSGSGSGTDFTLKISRVEAEDLGVYYCFQGSHVPLTFGAGTKLELKR
modifications: human IgG1 and kappa constant regions; Mouse
With B1 the “inhibition of migration of TNF-α-activated human peripheral neutrophil and monocyte toward thrombin-cleavage-type OPN” value ([6]; summary of Table 3) was “inhibited”, the “Mean migrating cell counts per 1 mm^3 (monocyte)” value ([6]; antibody 12.5 μ/mL) was 1010.0 ± 59.1 counts per 1 mm^3 and the “Mean migrating cell counts per 1 mm^3 (monocyte)” value ([6]; antibody 25 μ/mL) was 1153.3 ± 96.2 counts per 1 mm^3. The “Mean migrating cell counts per 1 mm^3 (monocyte)” value ([6]; antibody 50 μ/mL) was 895.0 ± 78.0 counts per 1 mm^3, the “Mean migrating cell counts per 1 mm^3 (monocyte)” value ([6]; antibody 100 μ/mL) was 821.7 ± 50.2 counts per 1 mm^3 and the “Mean migrating cell counts per 1 mm^3 (monocyte)” value ([6]; antibody 250 μ/mL) was 865.0 ± 64.9 counts per 1 mm^3. For the same molecule, the “Mean migrating cell counts per 1 mm^3 (monocyte)” value ([6]; antibody 500 μ/mL) was 830.0 ± 44.1 counts per 1 mm^3, the “reduction of the affinity due to the chimera preparation” value [7] was “No reduction” and the “binding activity to BSA-CVDTYDGRGDSVVYGLRS” value ([8]; ELISA, absorbance 450 nm, FIG. 13) was “had binding activities”. The “binding activity to BSA (negative control plate)” value ([8]; ELISA, plate with only BSA immobilized) was “not to BSA” and the “comparison of binding activities of both antibodies to BSA-CVDTYDGRGDSVVYGLRS” value ([8]; humanized versus chimera 2K1 antibody) was “at the same level”.
